In the RNAGym collection of RNA variant scans (doi:10.7554/elife.90254) one finds self-cleavage data, which are given here for 167 variants.

The labels stand for the following.
B1: LINE1-full (parent)
chain: UACGUAGGUGGUUUUCCCCUGAUAGUGCUAAGGGGGCCUGGAAGUUUGGACUGGGCAGAGCUCAACACAGCGUGGCAAAGUGGCUGUGGCUAGACUGCCUCUCUGGAUUCCUCGUCACUCAGCAGGGCAUCUCUGAGAGAAAUGCC

In the series the parent is B1. The experiment in a line: self-cleavage, relative activity (ratio to wild type); higher = more cleavage; in vitro, sequencing; the parent is a self-cleaving ribozyme.
Take G4U U39A: the self-cleavage worked out at 1.95.
As for A2G U81A, the figure is 0.74; as for A2G U109A, 0.65; as for U1C U91C, 0.39.
Next, C3U U143A: 0.41.
As for C3U U143G, the figure is 0; as for C3U U46C, 0.92.
As to A2G C37G, the self-cleavage was 0.87.
As for U1G A64G, the self-cleavage was found to be 0.46.
As for C3U U29A, the figure is 1.07.
Next, C3A U87A: 0.1; C3U U14C: 0.81; A2G A140C: 0.51.
Next, U5A: 0.95; U1G A138G: 1.57; C3U A107U: 1.17.
As for C3A U112C, the self-cleavage was determined as 1.48.
Next, G4A U26A: 0.82; U1C U143C: 1.18.
With A2G U85C, the self-cleavage was 0.48.
As for A2G G4U, the figure is 0.4.
Next, G4A A77G: 1.68.
Next, U1C U20A: 0.88.
As to G4A G54A, the self-cleavage amounted to 0.6.
Regarding C3U A59G, the self-cleavage came out at 0.1.
As for C3U U81C, the figure is 0.79; as for C3A U134C, 0.92; as for A2U U102C, 2.12.
Turning to A2G A107G, the self-cleavage amounted to 0.94.
Next, G4C A78G: 0.81; G4U U109C: 1.07.
As for C3U U62C, the figure is 0.15.
In the case of A2G A43G, the self-cleavage came out at 0.87.
As for C3U U5C, the figure is 1.16.
Regarding G4U U52A, the self-cleavage was 1.01.
As for G4A U20G, the figure is 0.62; as for A2G U115A, 1.08; as for A2G A129U, 0.62.
Regarding C3U A6U, the self-cleavage was 0.2.
Turning to C3A U52G, the self-cleavage is 1.31.
As for U5A A43G, the figure is 0.76.
For A2G U130A, the self-cleavage worked out at 1.72.
Next, G4A U96C: 0.15; C3U A94G: 0.54; G4U A78G: 1.05.
Next, A2U C113A: 0.63.
Next, U1C U81G: 1.01.
Regarding U1C U81C, the self-cleavage stood at 0.85.
Turning to A2G A142G, the self-cleavage is 0.93.
Next, A2G A142U: 1.12.
As for A2G U15C, the figure is 0.89; as for A2G U15A, 1.
As for A2U U15C, the figure is 1.19; as for G4U A136G, 1.91; as for C3A A121G, 0.53.
Turning to A2G U91C, the self-cleavage worked out at 0.45.
Regarding A2G U45C, the self-cleavage worked out at 1.19.
As for A2U G127C, the figure is 1.16.
Next, A2G G74A: 0.69; G4A U23C: 1.11; A2G U108C: 0.94.
As for A2G U108A, the figure is 1.02; as for A2U A92U, 0.32.
For the variant A2U U47C, the self-cleavage was 0.43.
As for A2U G11A, the figure is 0.92.
Next, A2G G114A: 0.82; U1C U12G: 0.84; U1C U12C: 0.78.
Next, A2U C16U: 0.32; C3U A43G: 0.95; C3U G60U: 0.07.
U1C U47A: the self-cleavage turned out to be 0.6.
Next, U1C U47C: 0.97; A2G A77U: 0.79; A2U A129G: 0.72.
In the case of G4A A121C, the self-cleavage is 1.72.
As for G4A A121U, the figure is 1.22.
As for U1C U85G, the figure is 0.08; as for U1C U85A, 0.03; as for A2G U20A, 0.37.
Next, A2G U20C: 0.74; U1C U108C: 0.67; U1C U29C: 1.1.
Turning to A2G C19A, the self-cleavage is 1.24.
Next, G4U A121U: 1.23; C3U U52G: 1.17.
As for U1G U52C, the figure is 2.63; as for A2G G32A, 0.
As for C3U A78G, the figure is 0.37.
Consider A2U G97A, for which the self-cleavage turned out to be 0.08.
As for C3A A78G, the figure is 0.64; as for G4U U119C, 1.31; as for A2G U39C, 0.32.
For C3U G93A, the self-cleavage worked out at 0.
As for C3U G41A, the figure is 2.76; as for A2G G34C, 0.75; as for A2C U130C, 1.19.
Regarding C3A G122A, the self-cleavage stood at 1.51.
Next, G4A A24G: 0.75.
In the case of G4C A64G, the self-cleavage came out at 1.25.
As for A2G A117G, the figure is 0.3; as for C3U A69U, 0.13.
Next, A2U U12C: 0.64; A2G A64C: 0.59.
As for A2G A64U, the figure is 0.88.
As to A2G A64G, the self-cleavage was 0.39.
With U1C U102A, the self-cleavage was 0.25.
Next, U5A A57G: 0.83; U5A A57U: 0.34; U1G A42U: 0.28.
As for A2C U119C, the figure is 0.89; as for A2G G75A, 0.7.
As for U1G G80A, the figure is 0.75; as for G4C A124G, 0.48; as for G4A A94U, 0.27.
Take G4A A43G: the self-cleavage stood at 0.67.
For the variant G4C A141G, the self-cleavage was 0.5.
As for U1G A30G, the figure is 0.61.
As for A2U U109C, the figure is 1.74; as for U1C G114C, 2.19.
With A2C G93A, the self-cleavage worked out at 0.03.
Regarding U5A A64C, the self-cleavage was found to be 0.19.
Take C3G A57U: the self-cleavage was found to be 0.
As for A2G A136U, the figure is 0.77.
As for C3U U85A, the figure is 0.28; as for C3A A140U, 0.9.
Consider A2G A6U, for which the self-cleavage is 0.53.
As for A2G U46C, the figure is 0.72; as for A2G U46A, 0.3; as for C3A U45G, 0.45.
For the variant G4A A79G, the self-cleavage was 1.3.
Consider G4A A79U, for which the self-cleavage was 0.64.
Next, A2G C71G: 0.42.
In the case of A2G G35A, the self-cleavage turned out to be 1.2.
Next, G4A A107U: 0.2; A2G U5C: 1.41.
With A2G U23C, the self-cleavage was 0.69.
Consider G4A C98A, for which the self-cleavage was 0.19.
As for G4C U96A, the figure is 0.12; as for C3A G70A, 0.08; as for C3A G55C, 0.07.
Turning to G4A A65G, the self-cleavage was 0.
With A2G A94G, the self-cleavage worked out at 0.25.
A2G A94U: the self-cleavage is 0.29.
As for G4A C133A, the figure is 0.79; as for A2U A142G, 1.15; as for G4A U62G, 0.
Next, U1C U109C: 0.42; U1C U109A: 2.04; C3U C113A: 1.15.
Next, A2G U9C: 0.83.
As to G4C A77G, the self-cleavage is 2.9.
In the case of G4U U5C, the self-cleavage was 0.79.
Next, C3U U87G: 0.32; A2G A59U: 0.8; A2G A31G: 1.
Next, G4A G40A: 1.24; G4A G11A: 0.58; A2U U52A: 0.92.
Next, A2G U134G: 1.21; A2G U134C: 1.35; C3U C51G: 1.31.
As for A2U G122A, the self-cleavage came out at 0.79.
As for U1C U14A, the figure is 0.81; as for U1C U14C, 0.93; as for U1C U115C, 1.19.
Next, G4A U12G: 1.23.
